Measured values from the supplement of paper PMC10567573.

B1: PLAGL1 (parent)
chain: TKEKKHQCDHCERCFYTRKDVRRH

Variants of: B1
Experiment: protein stability index of a GFP-peptide fusion (GPS, HEK-293T) (PSI 1-6); higher = more stable
Conditions: c terminus: a fixed tail appended
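Further: lentivirally expressed fusions sorted by FACS into six bins by GFP to DsRed ratio, PSI derived from sequencing read proportions per bin multiplied by bin number.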

| Variant | protein stability index |
| --- | --- |
| TKEKKHQCDHCERCFYTNKDVRRH [R18N] | 3.58 |
| TKEKKHQCDHCERCFYTPKDVRRH [R18P] | 3.13 |
| TKEKKHQCDHCERCFYTQKDVRRH [R18Q] | 3.38 |
| TKEKKHQCDHCERCFYTSKDVRRH [R18S] | 3.5 |
| TKEKKHQCDHCERCFYTTKDVRRH [R18T] | 3.29 |
| TKEKKHQCDHCERCFYTVKDVRRH [R18V] | 3.27 |
| TKEKKHQCDHCERCFYTWKDVRRH [R18W] | 3.27 |
| TKEKKHQCDHCERCFYTYKDVRRH [R18Y] | 3.2 |
| TKEKKHQCDHCERCFYTRADVRRH [K19A] | 3.66 |
| TKEKKHQCDHCERCFYTRCDVRRH [K19C] | 3.22 |
| TKEKKHQCDHCERCFYTRDDVRRH [K19D] | 3.39 |
| TKEKKHQCDHCERCFYTREDVRRH [K19E] | 4.03 |
| TKEKKHQCDHCERCFYTRFDVRRH [K19F] | 3.05 |
| TKEKKHQCDHCERCFYTRGDVRRH [K19G] | 3.52 |
| TKEKKHQCDHCERCFYTRHDVRRH [K19H] | 3.55 |
| TKEKKHQCDHCERCFYTRIDVRRH [K19I] | 2.52 |
| TKEKKHQCDHCERCFYTRLDVRRH [K19L] | 2.9 |
| TKEKKHQCDHCERCFYTRMDVRRH [K19M] | 3.06 |
| TKEKKHQCDHCERCFYTRNDVRRH [K19N] | 3.3 |
| TKEKKHQCDHCERCFYTRPDVRRH [K19P] | 3.33 |
| TKEKKHQCDHCERCFYTRQDVRRH [K19Q] | 3.89 |
| TKEKKHQCDHCERCFYTRRDVRRH [K19R] | 4.12 |
| TKEKKHQCDHCERCFYTRSDVRRH [K19S] | 3.17 |
| TKEKKHQCDHCERCFYTRTDVRRH [K19T] | 3.4 |

| Variant | protein stability index |
| --- | --- |
| TKEKKHQCDHCERCFYTRVDVRRH [K19V] | 2.95 |
| TKEKKHQCDHCERCFYTRWDVRRH [K19W] | 3.13 |
| TKEKKHQCDHCERCFYTRYDVRRH [K19Y] | 3.25 |
| TKEKKHQCDHCERCFYTRKAVRRH [D20A] | 3.61 |
| TKEKKHQCDHCERCFYTRKCVRRH [D20C] | 3.02 |
| TKEKKHQCDHCERCFYTRKEVRRH [D20E] | 3.96 |
| TKEKKHQCDHCERCFYTRKFVRRH [D20F] | 3.14 |
| TKEKKHQCDHCERCFYTRKGVRRH [D20G] | 3.21 |
| TKEKKHQCDHCERCFYTRKHVRRH [D20H] | 3.43 |
| TKEKKHQCDHCERCFYTRKIVRRH [D20I] | 2.65 |
| TKEKKHQCDHCERCFYTRKKVRRH [D20K] | 3.29 |
| TKEKKHQCDHCERCFYTRKLVRRH [D20L] | 3.14 |
| TKEKKHQCDHCERCFYTRKMVRRH [D20M] | 3.44 |
| TKEKKHQCDHCERCFYTRKNVRRH [D20N] | 3.37 |
| TKEKKHQCDHCERCFYTRKPVRRH [D20P] | 3.1 |
| TKEKKHQCDHCERCFYTRKQVRRH [D20Q] | 3.43 |
| TKEKKHQCDHCERCFYTRKRVRRH [D20R] | 3.84 |
| TKEKKHQCDHCERCFYTRKSVRRH [D20S] | 3.22 |
| TKEKKHQCDHCERCFYTRKTVRRH [D20T] | 2.96 |
| TKEKKHQCDHCERCFYTRKVVRRH [D20V] | 3.71 |
| TKEKKHQCDHCERCFYTRKWVRRH [D20W] | 3.03 |
| TKEKKHQCDHCERCFYTRKYVRRH [D20Y] | 3.28 |
| TKEKKHQCDHCERCFYTRKDARRH [V21A] | 3.68 |
| TKEKKHQCDHCERCFYTRKDCRRH [V21C] | 3.85 |

| Variant | protein stability index |
| --- | --- |
| TKEKKHQCDHCERCFYTRKDDRRH [V21D] | 3.53 |
| TKEKKHQCDHCERCFYTRKDERRH [V21E] | 3.9 |
| TKEKKHQCDHCERCFYTRKDFRRH [V21F] | 3.47 |
| TKEKKHQCDHCERCFYTRKDGRRH [V21G] | 3.65 |
| TKEKKHQCDHCERCFYTRKDHRRH [V21H] | 3.7 |
| TKEKKHQCDHCERCFYTRKDIRRH [V21I] | 3.25 |
| TKEKKHQCDHCERCFYTRKDKRRH [V21K] | 3.88 |
| TKEKKHQCDHCERCFYTRKDLRRH [V21L] | 3.74 |
| TKEKKHQCDHCERCFYTRKDMRRH [V21M] | 3.52 |
| TKEKKHQCDHCERCFYTRKDNRRH [V21N] | 3.54 |
| TKEKKHQCDHCERCFYTRKDPRRH [V21P] | 2.97 |
| TKEKKHQCDHCERCFYTRKDQRRH [V21Q] | 3.25 |
| TKEKKHQCDHCERCFYTRKDRRRH [V21R] | 3.95 |
| TKEKKHQCDHCERCFYTRKDSRRH [V21S] | 3.01 |
| TKEKKHQCDHCERCFYTRKDTRRH [V21T] | 3.34 |
| TKEKKHQCDHCERCFYTRKDWRRH [V21W] | 3.58 |
| TKEKKHQCDHCERCFYTRKDYRRH [V21Y] | 3.98 |
| TKEKKHQCDHCERCFYTRKDVARH [R22A] | 3.54 |
| TKEKKHQCDHCERCFYTRKDVCRH [R22C] | 4.07 |
| TKEKKHQCDHCERCFYTRKDVDRH [R22D] | 4.31 |
| TKEKKHQCDHCERCFYTRKDVERH [R22E] | 4.73 |
| TKEKKHQCDHCERCFYTRKDVFRH [R22F] | 3.51 |
| TKEKKHQCDHCERCFYTRKDVGRH [R22G] | 3.61 |
| TKEKKHQCDHCERCFYTRKDVHRH [R22H] | 3.96 |

| Variant | protein stability index |
| --- | --- |
| TKEKKHQCDHCERCFYTRKDVIRH [R22I] | 3.48 |
| TKEKKHQCDHCERCFYTRKDVKRH [R22K] | 3.76 |
| TKEKKHQCDHCERCFYTRKDVLRH [R22L] | 3.84 |
| TKEKKHQCDHCERCFYTRKDVMRH [R22M] | 3.65 |
| TKEKKHQCDHCERCFYTRKDVNRH [R22N] | 4.04 |
| TKEKKHQCDHCERCFYTRKDVPRH [R22P] | 3.62 |
| TKEKKHQCDHCERCFYTRKDVQRH [R22Q] | 3.51 |
| TKEKKHQCDHCERCFYTRKDVSRH [R22S] | 3.71 |
| TKEKKHQCDHCERCFYTRKDVTRH [R22T] | 4.04 |
| TKEKKHQCDHCERCFYTRKDVVRH [R22V] | 3.76 |
| TKEKKHQCDHCERCFYTRKDVWRH [R22W] | 3.27 |
| TKEKKHQCDHCERCFYTRKDVYRH [R22Y] | 3.69 |
| TKEKKHQCDHCERCFYTRKDVRAH [R23A] | 4.13 |
| TKEKKHQCDHCERCFYTRKDVRCH [R23C] | 3.49 |
| TKEKKHQCDHCERCFYTRKDVRDH [R23D] | 4.49 |
| TKEKKHQCDHCERCFYTRKDVREH [R23E] | 4.26 |
| TKEKKHQCDHCERCFYTRKDVRFH [R23F] | 3.33 |
| TKEKKHQCDHCERCFYTRKDVRGH [R23G] | 4.31 |
| TKEKKHQCDHCERCFYTRKDVRHH [R23H] | 3.85 |
| TKEKKHQCDHCERCFYTRKDVRIH [R23I] | 3.67 |
| TKEKKHQCDHCERCFYTRKDVRKH [R23K] | 4.27 |
| TKEKKHQCDHCERCFYTRKDVRLH [R23L] | 3.92 |
| TKEKKHQCDHCERCFYTRKDVRMH [R23M] | 3.79 |
